These sequences were tested against T1, RIG-I WT full-length (Homo sapiens) (UniProt O95786) (assay: filter). Details: J = 5-(N-3-phenylpropylcarboxyamide)-2'-deoxyuridine (PPdU) at every J (n in listing); SB18T0.01 (5 mM MgCl2) + 1 mM DTT, 37 C.
T1 sequence: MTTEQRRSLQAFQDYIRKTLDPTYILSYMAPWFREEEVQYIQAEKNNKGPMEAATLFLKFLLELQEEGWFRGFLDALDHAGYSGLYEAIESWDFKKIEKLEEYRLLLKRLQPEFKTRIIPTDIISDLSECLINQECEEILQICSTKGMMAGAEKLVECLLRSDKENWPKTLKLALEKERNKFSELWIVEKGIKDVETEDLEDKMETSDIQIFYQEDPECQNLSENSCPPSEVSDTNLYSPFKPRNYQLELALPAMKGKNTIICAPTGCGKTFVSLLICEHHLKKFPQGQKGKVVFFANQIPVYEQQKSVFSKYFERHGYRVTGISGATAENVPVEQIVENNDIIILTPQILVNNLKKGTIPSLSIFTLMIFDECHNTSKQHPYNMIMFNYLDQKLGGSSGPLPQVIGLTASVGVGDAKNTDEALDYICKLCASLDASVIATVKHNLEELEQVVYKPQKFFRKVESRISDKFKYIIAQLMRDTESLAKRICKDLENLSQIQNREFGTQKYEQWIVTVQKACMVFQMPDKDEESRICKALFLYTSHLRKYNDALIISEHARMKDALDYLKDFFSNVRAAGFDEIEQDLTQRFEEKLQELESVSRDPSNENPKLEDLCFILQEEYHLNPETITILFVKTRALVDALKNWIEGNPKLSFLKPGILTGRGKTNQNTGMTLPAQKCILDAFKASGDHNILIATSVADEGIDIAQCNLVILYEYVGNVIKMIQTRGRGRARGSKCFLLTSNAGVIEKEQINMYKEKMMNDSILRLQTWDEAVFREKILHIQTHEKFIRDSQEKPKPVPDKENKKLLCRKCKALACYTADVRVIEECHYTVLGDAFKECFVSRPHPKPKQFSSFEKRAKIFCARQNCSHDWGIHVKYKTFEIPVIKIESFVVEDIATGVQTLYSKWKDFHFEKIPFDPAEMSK

Row | Sequence | Kd [nM]
1 | ATCTCTGTGTCATGTGTTTTAATGTCAGTTTAATGATGAGGGACGGGCAG [14832-55_3] | 0.024

Same assay, conditions: J = PPdU at every J; SB18T0.01 + 1 mM DTT, 37 C

Row | Sequence | Kd [nM]
2 | ATCTCCGGGAACACTGTCTGATTAATGTCTTGTAAGCGGGTTTTCGGCAG [14833-10_3] | 12

What follows are sequences tested against T2, RIG-I CTD (aa 792-925) (Homo sapiens) (UniProt O95786) (assay: EMSA). Details: J = 5-(N-3-phenylpropylcarboxyamide)-2'-deoxyuridine (PPdU) at every J (n in listing); SB18T0.01 (5 mM MgCl2) + 20% glycerol, 1 mM DTT, 37 C.
T2 sequence: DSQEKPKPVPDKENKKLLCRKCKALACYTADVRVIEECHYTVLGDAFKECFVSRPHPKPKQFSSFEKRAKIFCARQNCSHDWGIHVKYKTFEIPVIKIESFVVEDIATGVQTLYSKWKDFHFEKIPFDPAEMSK

Row | Sequence | Kd [nM]
3 | ATCTCTGTGTCATGTGTTTTAATGTCAGTTTAATGATGAGGGACGGGCAG [14832-55_3] | 0.0072

Same assay, conditions: J = PPdU at every J; SB18T0.01 + 20% glycerol, 1 mM DTT, 37 C

Row | Sequence | Kd [nM]
4 | TCTGTGTCATGTGTTTTAATGTCAGTTTAATGATGAGG [14832-55_11] | 0.068
5 | ATCTCTGTGTCATGTGTTTTAATGTCAGTTTAATGATGAGGGACGGG [14832-55_6] | 0.018
6 | ATCTCTGTGTCATGTGTTTTAATGTCAGTTTAATGATGAGGGAC [14832-55_7] | 0.011
7 | ATCTCTGTGTCATGTGTTTTAATGTCAGTTTAATGATG [14832-55_9] | 0.15
8 | GTGTCATGTGTTTTAATGTCAGTTTAATGATGAGGGACGGGCAG [14832-55_5] | 36
9 | TCTGTGTCATGTGTTTTAATGTCAGTTTAATGATGAG [14832-55_14] | 0.066
10 | CTGTGTCATGTGTTTTAATGTCAGTTTAATGATGAGG [14832-55_12] | 0.34
11 | ATCTCTGTGTCATGTGTTTTAATGTCAGTTTAATG [14832-55_10] | 1.5
12 | TCTGTGTCATGTGTTTTAATGTCAGTTTAATGATGA [14832-55_15] | 0.063
13 | TCTGTGTCATGTGTTTTAATGTCAGTTTAATGATGAGGGACGGGCAG [14832-55_4] | 0.084
14 | TGTGTCATGTGTTTTAATGTCAGTTTAATGATGAGG [14832-55_13] | 4.3
